d = 2'-deoxy (DNA); r = 2'-OH (RNA)
Legend:
wild type yeast cells = assay type: cell-based
MazF = MazF (Escherichia coli, UniProt P0A850+P0AE70)
Procedure: The reaction was carried out as described in the text. Fluorescence was measured at 635 nm with excitation at 550 nm.
In a pilot experiment, we synthesized a small amount of CBS-1 and performed the cleavage reaction with use of purified MazF. The MIase reaction was carried out as follows; 5 μl (5×) MazF buffer (50 mM Tris-HCl, pH 7.8), 10 μl distilled water and 5 μl of CBS-1 solution (2 pmol/μl) were mixed and the mixture was preincubated at 37° C. The reaction was started by adding different concentrations of MazF (5 μl) (see FIG. 5). The excitation and emission wavelengths used were 550 and 635 nm, respectively.
MazF used in this reaction is fused to the trigger factor (a cold-shock molecular chaperone used for high expression of MazF).

[1] = molecular target: T1, YafQ with His6 tag at the carboxy terminus (E. coli K12, UniProt Q47149 1-92); test: affinity chromatography, co-purification via His6-tagged YafQ
T1 construct: not shown: C-terminal His6 tag from the pET vector
T1 sequence (looked up): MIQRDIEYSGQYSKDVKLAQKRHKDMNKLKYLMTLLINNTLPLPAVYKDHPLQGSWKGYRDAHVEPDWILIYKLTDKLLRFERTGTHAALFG

[2] = molecular target: T2, MazF, His-tagged at the C-terminal end (E. coli K12, UniProt P0AE70 1-111); test: Ni-NTA purification of the complex via the His-tagged toxin
T2 construct: not shown: C-terminal His tag from pET21
T2 sequence (looked up): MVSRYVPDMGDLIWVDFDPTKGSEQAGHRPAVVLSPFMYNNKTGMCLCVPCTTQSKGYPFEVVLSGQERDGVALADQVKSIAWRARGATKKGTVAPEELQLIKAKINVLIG

[3] = molecular target: T3, ChpBK, His-tagged at the C-terminal end (E. coli K12, UniProt P33647 1-116); test: as above
T3 construct: not shown: C-terminal His tag from pET21
T3 sequence (looked up): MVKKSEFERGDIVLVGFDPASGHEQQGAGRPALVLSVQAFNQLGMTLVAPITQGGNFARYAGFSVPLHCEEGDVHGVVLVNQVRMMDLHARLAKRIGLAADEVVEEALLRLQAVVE

[4] = molecular target: T4, RelE, His-tagged at the C-terminal end (E. coli K12, UniProt P0C077 1-95); test: as above
T4 construct: not shown: C-terminal His tag from pET21
T4 sequence (looked up): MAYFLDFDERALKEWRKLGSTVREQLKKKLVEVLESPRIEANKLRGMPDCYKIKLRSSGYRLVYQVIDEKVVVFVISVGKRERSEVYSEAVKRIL

[5] = molecular target: T5, HipA, His-tagged at the C-terminal end (E. coli K12, UniProt P23874 1-440); test: as above
T5 construct: not shown: C-terminal His tag from pET21
T5 sequence (looked up): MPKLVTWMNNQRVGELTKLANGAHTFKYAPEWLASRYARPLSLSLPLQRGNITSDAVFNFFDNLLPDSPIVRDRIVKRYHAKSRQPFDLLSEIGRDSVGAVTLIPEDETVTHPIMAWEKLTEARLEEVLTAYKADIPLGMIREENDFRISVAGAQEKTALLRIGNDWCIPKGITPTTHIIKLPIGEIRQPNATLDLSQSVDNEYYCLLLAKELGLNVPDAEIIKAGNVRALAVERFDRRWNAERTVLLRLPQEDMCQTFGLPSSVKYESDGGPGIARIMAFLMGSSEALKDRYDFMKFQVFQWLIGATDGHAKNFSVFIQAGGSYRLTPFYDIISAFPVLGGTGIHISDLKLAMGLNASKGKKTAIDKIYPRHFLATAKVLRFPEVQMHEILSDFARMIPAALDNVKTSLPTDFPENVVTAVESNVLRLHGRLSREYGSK

YdcE = molecular target: T6, YdcE (B. subtilis, UniProt P96622 1-116); test: purification of the toxin-antitoxin complex
T6 construct: also called MazF homologue from B. subtilis
T6 sequence (looked up): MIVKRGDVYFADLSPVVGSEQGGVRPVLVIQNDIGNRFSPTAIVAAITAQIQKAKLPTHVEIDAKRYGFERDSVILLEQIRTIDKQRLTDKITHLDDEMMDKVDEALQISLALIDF

ompA and ompF mRNAs = assay type: cell-based, E. coli; conditions: 2-h induction of YoeB with arabinose
E. coli cells [6] = assay type: cell-based; conditions: arabinose-inducible pBAD vector
[7] = tested on: translation initiation complex; test: Toeprinting assay on a translation initiation complex (mazG mRNA fragment, 70S ribosomes); assay type: biochemical, E. coli; conditions: only in the presence of ribosomes
lpp mRNA = assay type: cell-based, E. coli
E. coli cells [8] = conditions: MazF induction (Zhang et al., 2003b); cited from earlier work
[9] = tested on: cellular mRNAs (ompA, tufA, ompF) and polysomes; test: Northern blot and polysome pattern after Doc induction (pBAD, arabinose)
Procedure: Northern blot analysis after Doc induction. The doe gene was induced with use of a pBAD vector by the addition of arabinose. At the times after induction indicated on top of the gels, total cellular RNAs were extracted and analyzed by Northern blot for ompA, tufA and ompF mRNAs.
Polysome patterns of cells without (left panels) or with Doc induction (right panels) using cells harboring pBADdoc. Polysome patterns were analyzed as described in FIG. 11 with and without Doc induction by the addition of arabinose. Polysome patterns were analyzed in the presence (upper panels) or in the absence of hygromycin, an antibiotic that blocks translation elongation reaction.

E. coli = assay type: cell-based

RelE: E. coli toxin, ribosome-associating factor that stimulates ribosomal endo-ribonuclease activity
toxicity / growth inhibition in yeast (wild type yeast cells): prokaryote-specific growth inhibitors

dGdAdTdArUdAdCdAdTdAdTdG [CBS-1]
function as substrate for MazF (MazF; MazF fused to trigger factor, 37° C., pilot experiment): suitable and sensitive substrate

dGdAdTdArUrArCdGdTdAdTdG (GATAUACGTATG; sugars from the 5' end d4 r3 d5, backbone not given here) [CBS-2]
cleavage by MazF (MazF; substrate not yet synthesized): not by MazF

B1: DinJ (other, E. coli K12, UniProt Q47150 1-86, looked up)
chain: MAANAFVRARIDEDLKNQAADVLAGMGLTISDLVRITLTKVAREKALPFDLREPNQLTIQSIKNSEAGIDVHKAKDADDLFDKLGI
notes: Co-expressed with YafQ from a pET vector; the His6 tag was added only to YafQ; also called DinJ antitoxin
binding result [1]: binds

B2: MazE (other, E. coli K12, UniProt P0AE72 1-82, looked up)
chain: MIHSSVKRWGNSPAVRIPATLMQALNLNIDDEVKIDLVDGKLIIEPVRKEPVFTLAELVNDITPENLHENIDWGEPKDKEVW
notes: also called MazE antitoxin
binding result [2]: binds

B3: ChpBI (other, E. coli K12, UniProt P08365 1-83, looked up)
chain: MRITIKRWGNSAGMVIPNIVMKELNLQPGQSVEAQVSNNQLILTPISRRYSLDELLAQCDMNAAELSEQDVWGKSTPAGDEIW
notes: also called ChpBI antitoxin
binding result [3]: binds

B4: RelB (other, E. coli K12, UniProt P0C079 1-79, looked up)
chain: MGSINLRIDDELKARSYAALEKMGVTPSEALRLMLEYIADNERLPFKQTLLSDEDAELVEIVKERLRNPKPVRVTLDEL
notes: also called RelB antitoxin
binding result [4]: binds

B5: HipB (other, E. coli K12, UniProt P23873 1-88, looked up)
chain: MMSFQKIYSPTQLANAMKLVRQQNGWTQSELAKKIGIKQATISNFENNPDNTTLTTFFKILQSLELSMTLCDAKNASPESTEQQNLEW
notes: also called HipB antitoxin
binding result [5]: binds

B6: YdcD (other, B. subtilis, UniProt P96621 1-93, looked up)
chain: MSESSARTEMKISLPENLVAELDGVAMREKRSRNELISQAVRAYVSERTTRHNRDLMRRGYMEMAKINLNISSEAHFAECEAETTVERLVSGG
notes: also called YdcD antitoxin
binding result (YdcE): binds

B7: YoeB: E. coli toxin of the YoeB-YefM TA system, 50S ribosome associating protein (protein)
chain: MKLIWSEESWDDYLYWQETDKRIVKKINELIKDTRRTPFEGKGKPEPLKHNLSGFWSRRITEEHRLVYAVTDDSLLIAACRYHY
modifications: left off: small tags and cut ends
notes: E. coli toxin of the YoeB-YefM TA system, 50S ribosome associating protein
position of primer extension block downstream of the initiation codon, ompA mRNA (ompA and ompF mRNAs): 3 bases
position of primer extension block downstream of the initiation codon, ompF mRNA (ompA and ompF mRNAs): 6 bases
time after induction until cellular protein synthesis is almost completely inhibited (E. coli cells [6]): ≤ 5 min
toxicity / growth inhibition in yeast (wild type yeast cells): not toxic
shift of the toeprint band upstream of the normal toeprinting band [7]: 11 bases
time after induction at which a substantial amount of full-length lpp mRNA is still present (lpp mRNA): more than 1 h

B8: MazF: E. coli toxin, sequence-specific (ACA) endoribonuclease, mRNA interferase (protein)
chain: T2 sequence (looked up)
modifications: left off: small tags and cut ends
time after induction until cellular protein synthesis is inhibited (E. coli cells [8]): 15 to 20 min
time after induction until full-length lpp mRNA disappears (lpp mRNA): ≤ 5 min

B9: Doc: toxin of the Doc-Phd TA operon from phage P1 (protein)
chain: MRHISPEELIALHDANISRYGGLPGMSDPGRAEAIIGRVQARVAYEEITDLFEVSATYLVATARGHIFNDANKRTALNSALLFLRRNGVQVFDSPELADLTVGAATGEISVSSVADTLRRLYGSAE
modifications: left off: small tags and cut ends
degradation of cellular mRNAs ([9]; 120 min after induction): not degraded
polysome pattern ([9]; after 2 h induction, without addition of hygromycin): did not change

B10: YafQ: E. coli toxin of the YafQ-DinJ TA system, sequence-specific MIase (protein)
chain: T1 sequence (looked up)
modifications: left off: small tags and cut ends
toxicity / growth inhibition in E. coli (E. coli): growth inhibitor
toxicity / growth inhibition in yeast (wild type yeast cells): growth inhibitor

From US20100234287A1, “Targeting Bacterial Suicide Pathways for the Development of Novel Antibiotics” (UNIVERSITY OF MEDICINE AND DENTISTRY OF NEW JERSEY, priority 2006, published 2010)
